The supplement of paper PMC10057847, “Precision engineering of biological function with large-scale measurements and machine learning” (PLOS ONE, 2023)
± gives the uncertainty stated by the source.

B1: library; the commonest letter at each place (parent)
chain: MKPVTLYDVAEYAGVSYQTVSRVVNQASHVSAKTREKVEAAMAELNYIPNRVAQQLAGKQSLLIGVATSSLALHAPSQIVAAIKSRADQLGASVVVSMVERSGVEACKAAVHNLLAQRVSGLIINYPLDDQDAIAVEAACTNVPALFLDVSDQTPINSIIFSHEDGTRLGVEHLVALGHQQIALLAGPLSSVSARLRLAGWHKYLTRNQIQPIAEREGDWSAMSGFQQTMQMLNEGIVPTAMLVANDQMALGAMRAITESGLRVGADISVVGYDDTEDSSCYIPPLTTIKQDFRLLGQTSVDRLLQLSQGQAVKGNQLLPVSLVKRKTTLAPNTQTASPRALADSLMQLARQVSRLESGQ

Columns and labels:
Conditions in all cases: with IPTG
IPTG [1] = variants of: B1
Description: (§1)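 LacI variants on the pVER plasmid regulate eYFP behind lacO in E. coli MG1655Δlac, grown in rich M9 at 37 °C with a 2-fold IPTG dilution series. After two 160-min growth steps, YFP is read by flow cytometry and calibrated to MEF. Bayesian MCMC fits of the Hill equation give G0, G∞, EC50 and n (posterior mean ± SD).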

IPTG [2] = variants of: B1; test: Hill coefficient n (dimensionless); higher = steeper dose response
Description: as §1

IPTG [3] = variants of: B1; test: basal output G0 (YFP, no IPTG) (log10 MEF); higher = higher reporter expression without inducer
Description: as §1

IPTG [4] = variants of: B1; test: saturating output G-infinity (YFP) (log10 MEF); higher = higher reporter expression at saturating IPTG
Description: as §1

Variant	EC50 for IPTG (log10 µmol/L) (IPTG [1])	Hill coefficient n (IPTG [2])	basal output G0 (log10) (IPTG [3])	saturating output G-infinity (log10) (IPTG [4])
I83F G200C	1.913 ± 0.0091	1.48 ± 0.032	3.03 ± 0.023	4.4658 ± 0.0031
I83M	2.555 ± 0.019	1.48 ± 0.049	1.45 ± 0.61	4.268 ± 0.0077
I83M S97T	2.18 ± 0.046	1.52 ± 0.16	1.25 ± 0.81	4.399 ± 0.017
I83M S97T V136E	2.29 ± 0.05	0.765 ± 0.058	4.52 ± 0.0074	4.113 ± 0.012
I83M V136E	1.48 ± 0.029	1.21 ± 0.075	4.519 ± 0.0083	3.789 ± 0.011
K84E D88Y L90P Q153L A199V L342M R351P S358R	1.47 ± 0.046	0.795 ± 0.045	4.34 ± 0.01	3.722 ± 0.01
A87P V301M E357G	2.37 ± 0.024	1.18 ± 0.053	4.51 ± 0.0073	3.619 ± 0.014
D88G	2.671 ± 0.015	1.41 ± 0.046	0.914 ± 0.56	3.854 ± 0.0057
D88N	2.843 ± 0.028	1.33 ± 0.086	0.96 ± 0.58	3.479 ± 0.0093
D88Y A241V N246S L305M L319F P339T A341T L346S	2.73 ± 0.1	0.483 ± 0.058	4.455 ± 0.018	2.91 ± 1.1
Q89L S158C E172K Q291H	2.457 ± 0.021	1.33 ± 0.04	3.336 ± 0.007	4.341 ± 0.0086
L90Q L198M E235D T336S	1.88 ± 0.022	1.61 ± 0.073	2.51 ± 0.2	4.423 ± 0.0091
L90Q R101G C140G L169Q K290I T329S	1.57 ± 0.01	1.54 ± 0.041	3.06 ± 0.033	4.4822 ± 0.004
G91D V94A R101G S158C T167M E172D A176S F226Y T276S T299A	2.31 ± 0.027	1.25 ± 0.063	4.329 ± 0.0062	3.63 ± 0.0095
S93N V99E S102R L198Q S260F A337S	0.634 ± 0.024	1.31 ± 0.088	3.834 ± 0.012	4.443 ± 0.0046
V94L V99I V104I L307F	1.47 ± 0.02	1.56 ± 0.1	2.75 ± 0.26	4.204 ± 0.0067
V94M S190C G200A Q209R R263H Q317L	1.44 ± 0.025	1.4 ± 0.072	3.418 ± 0.023	4.454 ± 0.0086
V95M A337T	2.109 ± 0.018	1.59 ± 0.082	2.13 ± 0.64	4.23 ± 0.0081
V95M Q335R Q360R	2.01 ± 0.05	1.49 ± 0.13	2.02 ± 0.65	4.169 ± 0.022
V96E T154I S158R V238D M254I V264I	2.37 ± 0.029	1.37 ± 0.067	4.479 ± 0.01	3.19 ± 0.03
V96M	2.315 ± 0.015	1.46 ± 0.048	1.73 ± 0.53	4.175 ± 0.006
S97T	1.59 ± 0.023	1.58 ± 0.067	2.61 ± 0.16	4.572 ± 0.01
S97T F161V	2.22 ± 0.032	1.59 ± 0.087	2.49 ± 0.21	4.47 ± 0.016
S97T G200C	2.162 ± 0.012	1.65 ± 0.041	2.68 ± 0.043	4.442 ± 0.0057
S97T V136E	1.37 ± 0.038	1.42 ± 0.12	3.05 ± 0.078	4.331 ± 0.013
V99E A116T T141I S190C	0.86 ± 0.015	1.33 ± 0.047	3.534 ± 0.013	4.454 ± 0.0039
E100V T299I	0.9867 ± 0.0075	1.54 ± 0.032	3.09 ± 0.037	4.4562 ± 0.0024
G103D H202Y P284T	1.5 ± 0.016	1.64 ± 0.075	2.85 ± 0.11	4.458 ± 0.0062
A109E D165V G166A R255C E259G	0.842 ± 0.018	1.33 ± 0.06	3.421 ± 0.019	4.417 ± 0.0048
N113D D132N T154R M242I V313A K314N R340S	2.033 ± 0.011	1.64 ± 0.048	1.59 ± 0.65	4.226 ± 0.0048
